Among the targets are AHNAK2, Q8IVF2; LIMK1, P53667; MAGI1_6, Q96QZ7; MAGI3_3, Q5TCQ9; MAGI3_4, Q5TCQ9; MAGI3_5, Q5TCQ9; MAGI3_6, Q5TCQ9; NHERF4_3, Q86UT5; PDZRN4_2, Q6ZMN7; RIMS1, Q86UR5.
Holding throughout (test): holdup assay
Holding throughout (parameters): key: below the threshold = too weak to quantify, mostly under pKd 3.1 to 4

In another assay the target is T1, APBA3_2, O96018.
T1 sequence (O96018 480-570, limits assumed, looked up): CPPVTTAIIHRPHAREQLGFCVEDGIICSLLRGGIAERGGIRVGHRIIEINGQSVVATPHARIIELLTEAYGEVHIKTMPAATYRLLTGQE

In a further assay the target is GIPC3, Q8TF64. The following applies: plain residues with an end cap or a label only (N-terminal biotin on a linker: (peg)3).
In another assay the target is GRIP2_2, Q9C0E4. Particulars: plain residues with an end cap or a label only (N-terminal biotin on a linker: (peg)3).
For the next assay, the target named is LMO7, Q8WWI1. The following applies: plain residues with an end cap or a label only (N-terminal biotin on a linker: (peg)3).
The target of the next assay is MAGI1_4, Q96QZ7. Particulars: plain residues with an end cap or a label only (N-terminal biotin on a linker: (peg)3).
The next assay addresses T2, MPDZ_11, O75970.
T2 sequence (O75970 1720-1817, limits assumed, looked up): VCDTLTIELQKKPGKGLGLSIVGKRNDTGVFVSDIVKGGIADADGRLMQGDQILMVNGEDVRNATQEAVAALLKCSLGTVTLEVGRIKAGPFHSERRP

In a further assay the target is T3, MPP5, Q8N3R9.
T3 sequence (Q8N3R9 251-346, limits assumed, looked up): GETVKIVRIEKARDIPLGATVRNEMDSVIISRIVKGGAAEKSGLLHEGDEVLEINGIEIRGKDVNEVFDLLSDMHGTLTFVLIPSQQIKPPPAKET

In another assay the target is T4, PDZD11, Q5EBL8.
T4 sequence (Q5EBL8 42-139, limits assumed, looked up): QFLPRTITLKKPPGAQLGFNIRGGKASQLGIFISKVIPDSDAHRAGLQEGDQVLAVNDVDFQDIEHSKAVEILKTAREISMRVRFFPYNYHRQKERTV

The next assay deals with T5, PDZD2_3, O15018.
T5 sequence (O15018 581-682, limits assumed, looked up): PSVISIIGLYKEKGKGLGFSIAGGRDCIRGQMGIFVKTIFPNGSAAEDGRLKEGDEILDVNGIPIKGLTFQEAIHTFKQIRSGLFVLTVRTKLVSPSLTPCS

The next assay concerns the target T6, PDZD2_6, O15018.
T6 sequence (O15018 2745-2839, limits assumed, looked up): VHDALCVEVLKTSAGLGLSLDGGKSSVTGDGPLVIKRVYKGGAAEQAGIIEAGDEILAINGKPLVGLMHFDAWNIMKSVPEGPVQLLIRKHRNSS

A further assay addresses T7, PTPN4, P29074.
T7 sequence (P29074 512-599, limits assumed, looked up): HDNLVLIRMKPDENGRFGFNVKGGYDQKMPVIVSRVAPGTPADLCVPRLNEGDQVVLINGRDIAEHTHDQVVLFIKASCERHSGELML

The target in a further assay is Q8IUC4. Particulars: plain residues with an end cap or a label only (N-terminal biotin on a linker: (peg)3).
In another assay the target is T8, SHANK3, Q9BYB0.
T8 sequence (Q9BYB0 641-750, limits assumed, looked up): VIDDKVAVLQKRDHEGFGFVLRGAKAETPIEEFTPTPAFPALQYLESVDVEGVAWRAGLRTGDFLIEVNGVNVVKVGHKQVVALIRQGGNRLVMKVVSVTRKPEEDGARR

A further assay concerns the target T9, SHROOM2, Q13796.
T9 sequence (Q13796 21-118, limits assumed, looked up): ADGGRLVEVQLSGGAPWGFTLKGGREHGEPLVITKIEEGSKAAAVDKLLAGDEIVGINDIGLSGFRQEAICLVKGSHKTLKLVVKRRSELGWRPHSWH

In a further assay the target is T10, SNTB2, Q13425.
T10 sequence (Q13425 110-208, limits assumed, looked up): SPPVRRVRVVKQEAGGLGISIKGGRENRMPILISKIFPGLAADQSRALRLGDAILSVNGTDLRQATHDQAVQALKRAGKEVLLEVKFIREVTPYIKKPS
The following applies: plain residues with an end cap or a label only (N-terminal biotin on a linker: (peg)3).

The next assay has as its target T11, SYNPO2L, Q9H987.
T11 sequence (Q9H987 1-98, limits assumed, looked up): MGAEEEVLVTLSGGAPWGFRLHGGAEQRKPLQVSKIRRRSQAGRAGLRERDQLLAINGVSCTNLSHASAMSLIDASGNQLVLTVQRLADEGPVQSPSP

The mark [1] stands for this setting: plain residues with an end cap or a label only (N-terminal biotin on a linker: (peg)3).
The mark [2] stands for this setting: modified: phospho on T at position -2 from the C-terminal residue.

Sequence of NHERF4_3, Q86UT5 (Q86UT5 325-412): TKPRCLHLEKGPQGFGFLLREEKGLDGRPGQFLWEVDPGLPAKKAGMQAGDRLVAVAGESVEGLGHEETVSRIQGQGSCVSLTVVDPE
Sequence of MAGI3_3, Q5TCQ9 (Q5TCQ9 572-655): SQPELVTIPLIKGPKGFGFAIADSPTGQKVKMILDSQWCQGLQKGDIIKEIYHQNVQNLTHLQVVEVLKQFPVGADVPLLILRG
Sequence of RIMS1, Q86UR5 (Q86UR5 584-692): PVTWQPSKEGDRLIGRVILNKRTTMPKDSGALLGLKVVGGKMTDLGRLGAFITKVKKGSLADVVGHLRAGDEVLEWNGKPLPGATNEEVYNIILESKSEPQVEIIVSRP
Sequence of LIMK1, P53667 (P53667 155-268): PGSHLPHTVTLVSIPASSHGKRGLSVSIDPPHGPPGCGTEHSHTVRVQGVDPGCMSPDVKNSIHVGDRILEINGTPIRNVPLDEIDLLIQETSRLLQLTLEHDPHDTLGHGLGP
Sequence of MAGI3_6, Q5TCQ9 (Q5TCQ9 1014-1103): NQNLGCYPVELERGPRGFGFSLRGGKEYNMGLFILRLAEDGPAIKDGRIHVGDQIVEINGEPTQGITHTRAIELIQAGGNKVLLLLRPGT
Sequence of MAGI3_5, Q5TCQ9 (Q5TCQ9 847-941): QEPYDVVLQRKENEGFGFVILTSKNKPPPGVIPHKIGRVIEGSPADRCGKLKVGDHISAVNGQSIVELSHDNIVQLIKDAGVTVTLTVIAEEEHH
Sequence of MAGI3_4, Q5TCQ9 (Q5TCQ9 716-815): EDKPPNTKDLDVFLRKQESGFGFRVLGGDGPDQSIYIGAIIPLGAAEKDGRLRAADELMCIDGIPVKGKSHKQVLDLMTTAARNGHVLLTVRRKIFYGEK
Sequence of AHNAK2, Q8IVF2 (Q8IVF2 108-193): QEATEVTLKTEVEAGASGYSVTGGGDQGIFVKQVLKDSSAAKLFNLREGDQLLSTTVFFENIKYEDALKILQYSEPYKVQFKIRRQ
Sequence of MAGI1_6, Q96QZ7 (Q96QZ7 1146-1238): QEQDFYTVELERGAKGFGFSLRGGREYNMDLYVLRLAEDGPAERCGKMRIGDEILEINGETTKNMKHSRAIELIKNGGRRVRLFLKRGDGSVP
Sequence of PDZRN4_2, Q6ZMN7 (Q6ZMN7 389-498): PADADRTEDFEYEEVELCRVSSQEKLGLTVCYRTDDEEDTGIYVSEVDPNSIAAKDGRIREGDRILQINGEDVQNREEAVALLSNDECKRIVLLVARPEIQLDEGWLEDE
Sequence of GRIP2_2, Q9C0E4 (Q9C0E4 137-245): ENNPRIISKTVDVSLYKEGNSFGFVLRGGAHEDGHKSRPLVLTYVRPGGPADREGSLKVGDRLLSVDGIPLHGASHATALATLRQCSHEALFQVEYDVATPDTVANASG
Sequence of MAGI1_4, Q96QZ7 (Q96QZ7 other isoform, or with tags, fused parts or gaps): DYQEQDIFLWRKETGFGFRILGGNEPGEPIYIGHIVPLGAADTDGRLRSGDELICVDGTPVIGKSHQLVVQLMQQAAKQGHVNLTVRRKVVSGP
Sequence of LMO7, Q8WWI1 (Q8WWI1 1037-1138): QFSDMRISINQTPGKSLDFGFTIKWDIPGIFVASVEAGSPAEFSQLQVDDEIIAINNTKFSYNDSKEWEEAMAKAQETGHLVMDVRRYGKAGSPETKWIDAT
Sequence of GIPC3, Q8TF64 (Q8TF64 107-202): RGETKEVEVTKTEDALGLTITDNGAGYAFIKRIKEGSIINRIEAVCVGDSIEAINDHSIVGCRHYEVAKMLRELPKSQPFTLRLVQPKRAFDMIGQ

B1: SARS-Cov2-N, P0DTC9 (peptide)
chain: QQSMSSADSTQA
What is called pKd is the Kd on a negative log10 scale, so that one unit is a factor of ten. B1: the pKd result with AHNAK2, Q8IVF2 (setting [1]) was “below the threshold”; in the assay with APBA3_2, O96018 (setting [1]), “below the threshold”; in the assay with GIPC3, Q8TF64 it was “below the threshold”; in the assay with GRIP2_2, Q9C0E4, “below the threshold”; in the assay with LIMK1, P53667 (setting [1]), “below the threshold”; with LMO7, Q8WWI1, “below the threshold”. Besides, the pKd result in the assay with MAGI1_4, Q96QZ7 is “below the threshold”; with MAGI1_6, Q96QZ7 (setting [1]), “below the threshold”; with MAGI3_3, Q5TCQ9 (setting [1]), 3.78; in the assay with MAGI3_4, Q5TCQ9 (setting [1]) it was “below the threshold”; with MAGI3_5, Q5TCQ9 (setting [1]), “below the threshold”; with MAGI3_6, Q5TCQ9 (setting [1]), “below the threshold”. Besides, the pKd entry is reported as “below the threshold” with MPDZ_11, O75970 (setting [1]); “below the threshold” with MPP5, Q8N3R9 (setting [1]); “below the threshold” with NHERF4_3, Q86UT5 (setting [1]); “below the threshold” with PDZD11, Q5EBL8 (setting [1]); “below the threshold” with PDZD2_3, O15018 (setting [1]); “below the threshold” with PDZD2_6, O15018 (setting [1]). Besides, the pKd entry with PDZRN4_2, Q6ZMN7 (setting [1]) is “below the threshold”; with PTPN4, P29074 (setting [1]), “below the threshold”; in the assay with Q8IUC4, “below the threshold”; in the assay with RIMS1, Q86UR5 (setting [1]), “below the threshold”; with SHANK3, Q9BYB0 (setting [1]) it was “below the threshold”; with SHROOM2, Q13796 (setting [1]), “below the threshold”. The pKd entry with SNTB2, Q13425 is given as “below the threshold”; with SYNPO2L, Q9H987 (setting [1]) it was “below the threshold”.

B2: WNV-NS5, Q9Q6P4 (peptide)
chain: RYEDTTLVEDTVL
Regarding B2, the negative-log Kd (pKd) entry with AHNAK2, Q8IVF2 (setting [1]) was “below the threshold”; with APBA3_2, O96018 (setting [1]), “below the threshold”; in the assay with LIMK1, P53667 (setting [1]), “below the threshold”; with LMO7, Q8WWI1, “below the threshold”; with MAGI1_6, Q96QZ7 (setting [1]), “below the threshold”; with MAGI3_3, Q5TCQ9 (setting [1]), “below the threshold”. Moreover, the pKd result was “below the threshold” with MAGI3_4, Q5TCQ9 (setting [1]); “below the threshold” with MAGI3_5, Q5TCQ9 (setting [1]); “below the threshold” in the assay with MAGI3_6, Q5TCQ9 (setting [1]); “below the threshold” with MPDZ_11, O75970 (setting [1]); “below the threshold” in the assay with MPP5, Q8N3R9 (setting [1]); “below the threshold” with NHERF4_3, Q86UT5 (setting [1]). In addition, the pKd entry is “below the threshold” with PDZD11, Q5EBL8 (setting [1]); “below the threshold” in the assay with PDZD2_3, O15018 (setting [1]); “below the threshold” with PDZD2_6, O15018 (setting [1]); “below the threshold” with PDZRN4_2, Q6ZMN7 (setting [1]); “below the threshold” with PTPN4, P29074 (setting [1]); “below the threshold” with RIMS1, Q86UR5 (setting [1]). The pKd with SHANK3, Q9BYB0 (setting [1]) was 4.59; with SHROOM2, Q13796 (setting [1]), 4.14; in the assay with SNTB2, Q13425, “below the threshold”; in the assay with SYNPO2L, Q9H987 (setting [1]), “below the threshold”.

B3: HBV-HBc, P03193 (peptide)
chain: RRRRSQSRESQC
For the molecule B3, the pKd result with AHNAK2, Q8IVF2 (setting [1]) is “below the threshold”; with APBA3_2, O96018 (setting [1]) it was “below the threshold”; with GIPC3, Q8TF64, “below the threshold”; with GRIP2_2, Q9C0E4, “below the threshold”; in the assay with LIMK1, P53667 (setting [1]) it was “below the threshold”; with MAGI1_4, Q96QZ7 it was “below the threshold”. For the same molecule, the negative-log Kd (pKd) result in the assay with MAGI1_6, Q96QZ7 (setting [1]) is “below the threshold”; with MAGI3_3, Q5TCQ9 (setting [1]), “below the threshold”; with MAGI3_4, Q5TCQ9 (setting [1]) it was “below the threshold”; in the assay with MAGI3_5, Q5TCQ9 (setting [1]), “below the threshold”; with MAGI3_6, Q5TCQ9 (setting [1]), “below the threshold”; with MPDZ_11, O75970 (setting [1]), “below the threshold”. Further, the pKd entry is “below the threshold” with MPP5, Q8N3R9 (setting [1]); “below the threshold” with NHERF4_3, Q86UT5 (setting [1]); “below the threshold” with PDZD11, Q5EBL8 (setting [1]); “below the threshold” with PDZD2_3, O15018 (setting [1]); “below the threshold” with PDZD2_6, O15018 (setting [1]); “below the threshold” with PDZRN4_2, Q6ZMN7 (setting [1]). Moreover, the pKd was 4.94 in the assay with PTPN4, P29074 (setting [1]); “below the threshold” in the assay with RIMS1, Q86UR5 (setting [1]); “below the threshold” with SHANK3, Q9BYB0 (setting [1]); “below the threshold” with SHROOM2, Q13796 (setting [1]); 4.58 in the assay with SNTB2, Q13425; “below the threshold” with SYNPO2L, Q9H987 (setting [1]).

B4: HPV16-E6_-2P, P03126 (peptide)
chain: SSRTRRETQL
Take B4: the pKd entry in the assay with AHNAK2, Q8IVF2 (setting [2]) is “below the threshold”; in the assay with APBA3_2, O96018 (setting [2]), “below the threshold”; with LIMK1, P53667 (setting [2]), “below the threshold”; with MAGI1_6, Q96QZ7 (setting [2]), “below the threshold”; in the assay with MAGI3_3, Q5TCQ9 (setting [2]), “below the threshold”; in the assay with MAGI3_4, Q5TCQ9 (setting [2]), “below the threshold”. Moreover, the pKd result is listed as “below the threshold” with MAGI3_5, Q5TCQ9 (setting [2]); “below the threshold” with MAGI3_6, Q5TCQ9 (setting [2]); “below the threshold” in the assay with MPDZ_11, O75970 (setting [2]); “below the threshold” with MPP5, Q8N3R9 (setting [2]); “below the threshold” in the assay with NHERF4_3, Q86UT5 (setting [2]); “below the threshold” in the assay with PDZD11, Q5EBL8 (setting [2]). Besides, the negative logarithm of the Kd (pKd) result was “below the threshold” in the assay with PDZD2_3, O15018 (setting [2]); “below the threshold” with PDZD2_6, O15018 (setting [2]); 4.26 with PDZRN4_2, Q6ZMN7 (setting [2]); “below the threshold” in the assay with PTPN4, P29074 (setting [2]); “below the threshold” in the assay with RIMS1, Q86UR5 (setting [2]); “below the threshold” in the assay with SHANK3, Q9BYB0 (setting [2]). Moreover, the pKd entry with SHROOM2, Q13796 (setting [2]) is listed as “below the threshold”; in the assay with SYNPO2L, Q9H987 (setting [2]) it was “below the threshold”.

For the origin of these results see publication PMC9482650, “Quantitative fragmentomics allow affinity mapping of interactomes” (Nature Communications, 2022).
